Data taken from US9283300B2, “Use of midkine protein and the protein-containing medical device” (GENERAL REGENERATIVES, LTD, priority 2009, dated 2016).

How the values were obtained:
Assay type in all cases: cell-based
[1] = system: rat primary auricular (ear elastic cartilage) chondrocyte; assay: MTT proliferation assay, primary chondrocytes in monolayer; details: for light absorbance at 490 nm in MTT assay: Auricular chondrocyte, 48 h, mean ± SD
Description: (§1) 1. Preparation of primary chondrocyte. The 8-week-old male SD rats were sacrificed under sterile conditions. The articular cartilage, fibrocartilage and elastic cartilage tissue were isolated from the femur joints, meniscus and outer ear respectively using a scalpel. The isolated cartilage were cut into small pieces, washed twice with phosphate buffered saline (PBS), and digested with trypsin (0.25% (w/v) trypsin/0.02% (w/v) EDTA) at 37° C. for 30 min. The articular cartilage and elastic cartilage were further digested with 0.2% type II collagenase for additional 16 h, and the fibrocartilage were further digested with 0.15% type I collagenase for additional 16 h. After digestion, three chondrocytes were passed through 100 μm filter (Falcon, USA) into 15 ml centrifuge tubes, centrifuged at room temperature at 2000 rpm for 5 min. Cells were resuspended in DMEM containing 10% FBS (fetal bovine serum). Trypan blue staining of the freshly isolated cells was used to monitor the percentage of live cells under the microscope. When the number of live cells is more than 95%, it was used for subsequent experiments.
(§2) 2. MTT assay. Three types of primary chondrocytes were suspended at a density of 5×10^4 cells/ml in DMEM containing 10% FBS. Cells were seeded into a 96-well plate (100 μl per well) and cultured at 37° C. under 5% CO2 for 48 h. The cells were washed with serum-free DMEM medium once. Different concentrations of rhMK (0.5, 1.0, 3.0, 5.0, 9.0 μg/ml) in DMEM (containing 0.5% FBS) were added to each well and the cells were cultured for additional 48 h. After incubation, the medium was replaced with 100 μl serum-free DMEM medium and 20 μl MTT solution (0.5 mg/ml, in PBS), incubated at 37° C. under 5% CO2 for 4 h. After removing the liquid, 120 μl DMSO was added to dissolve the MTT crystals by shaking for 1 min on a micro-plate oscillator. Light absorbance at 490 nm was measured using a microplate reader (BIO-TEK, USA).

[2] = system: rat primary fibrochondrocyte; assay: as above; details: for light absorbance at 490 nm in MTT assay: Fibrochondrocyte, 48 h, mean ± SD
Description: as §1, §2

[3] = system: rat primary articular chondrocyte; assay: as above; details: for light absorbance at 490 nm in MTT assay: Articular chondrocyte, 48 h, mean ± SD
Description: as §1, §2

[4] = system: rat auricular chondrocytes; assay: Phenotype of chondrocytes in monolayer culture (semi-quantitative PCR of Col2a1, collagen II immunohistochemical staining)
Description: 3. Culture of primary chondrocytes in monolayer. Three types of primary chondrocytes were suspended in DMEM medium containing 10% FBS, adjusted to 5×10^4 cells/ml, added to 6-well plate with 2 ml medium/well, and incubated in 37° C. at 5% CO2. Experiment was divided into two groups: control group and experimental group (with 3 μg/ml rhMK). Cell medium was changed every two days. When the cells grew to the confluence of 85% to 90%, the cells were collected by trypsin digestion, washed in PBS by centrifugation. The cells were resuspended in DMEM containing 10% FBS. Cell survival was monitored by trypan blue staining. Part of the cells were used for cell passage; some were for RNA extraction; some were cytospined onto a glass slide for later immunohistochemical staining and the slides were stored at −80° C. Primary cells or passage 0 (P0) were cultured for 7 days. The newly passaged cells were further cultured in a 6-well plate for 3 days which was then collected by trypsin-digestion and marked as passage P1. The cell amplification at each passage=total number of cells at output/total number of cells at initial input. 6. Immunohistochemical staining. […] RNA extraction and semi-quantitative PCR. […] PCR products were separated on 1.5% (w/v) agarose gels and quantified after staining with ethidium bromide in comparison with internal control gene expression of β-actin.

B1: rhMK: recombinant human midkine mature protein (SEQ ID NO.1) expressed in E. coli and purified by ion-exchange chromatography (protein, listed as Homo sapiens)
chain: MKKKDKVKKGGPGSECAEWAWGPCTPSSKDCGVGFREGTCGAQTQRIRCRVPCNWKKEFGADCKYKFENWGACDGGTGTKVRQGTLKKARYNAQCQETIRVTKPCTPKTKAKAKAKKGKGKD
Q: Which “light absorbance at 490 nm in MTT assay” value ([1]; rhMK 0.5 μg/ml) does the source give for B1 here?
A: 0.52 ± 0.05

Q: And the “light absorbance at 490 nm in MTT assay” value ([1]; rhMK 1.0 μg/ml)?
A: 0.54 ± 0.02

Q: And the “light absorbance at 490 nm in MTT assay” value ([1]; rhMK 3.0 μg/ml)?
A: 0.56 ± 0.01

Q: What about the “light absorbance at 490 nm in MTT assay” value ([1]; rhMK 5.0 μg/ml) of the same molecule?
A: 0.56 ± 0.02

Q: And the “light absorbance at 490 nm in MTT assay” value ([1]; rhMK 9.0 μg/ml)?
A: 0.56 ± 0.02

Q: What about the “lowest effective dose of rhMK (proliferation, MTT)” value (“lowest effective dose of rhMK” for short) ([1]; ear elastic cartilage cells, monolayer) of the same molecule?
A: 0.5 µg/mL

Q: What about the “light absorbance at 490 nm in MTT assay” value ([2]; rhMK 0.5 μg/ml) of the same molecule?
A: 0.42 ± 0.02

Q: What about the “light absorbance at 490 nm in MTT assay” value ([2]; rhMK 1.0 μg/ml) of the same molecule?
A: 0.43 ± 0.02

Q: What about the “light absorbance at 490 nm in MTT assay” value ([2]; rhMK 3.0 μg/ml) of the same molecule?
A: 0.47 ± 0.00

Q: And the “light absorbance at 490 nm in MTT assay” value ([2]; rhMK 5.0 μg/ml)?
A: 0.45 ± 0.00

Q: What about the “light absorbance at 490 nm in MTT assay” value ([2]; rhMK 9.0 μg/ml) of the same molecule?
A: 0.45 ± 0.00

Q: What about the “lowest effective dose of rhMK” value ([2]; fibrochondrocyte, monolayer) of the same molecule?
A: 3 µg/mL

Q: And the “light absorbance at 490 nm in MTT assay” value ([3]; rhMK 0.5 μg/ml)?
A: 0.33 ± 0.02

Q: And the “light absorbance at 490 nm in MTT assay” value ([3]; rhMK 1.0 μg/ml)?
A: 0.40 ± 0.01

Q: What about the “light absorbance at 490 nm in MTT assay” value ([3]; rhMK 3.0 μg/ml) of the same molecule?
A: 0.38 ± 0.01

Q: What about the “light absorbance at 490 nm in MTT assay” value ([3]; rhMK 5.0 μg/ml) of the same molecule?
A: 0.30 ± 0.01

Q: What about the “light absorbance at 490 nm in MTT assay” value ([3]; rhMK 9.0 μg/ml) of the same molecule?
A: 0.39 ± 0.01

Q: What about the “lowest effective dose of rhMK” value ([3]; articular chondrocytes, monolayer) of the same molecule?
A: 1 µg/mL

Q: And the “effect on Col2a1 expression (semiquantitative PCR)” value ([4]; auricular chondrocyte after one passage)?
A: inhibited the decreasing of the Col2a1

Q: What about the “chondrocytes stained collagen II positive” value ([4]; auricular chondrocytes, passage one, rhMK group, not detected without rhMK) of the same molecule?
A: about 50%
